2 molecules from patent US20250121064A1 (CARSGEN LIFE SCIENCES, published 2025) can be followed below.

This test deals with T1, human GPRC5D on cells (human, UniProt Q9NZD1 1-345).
T1 construct: MM.1S and NCI-H929 cells express it endogenously; also called huGPRC5D; CHOK1-huGPRC5D
The test is described as follows: flow cytometry on CHOK1-huGPRC5D cells.

T1 sequence (Q9NZD1 whole entry): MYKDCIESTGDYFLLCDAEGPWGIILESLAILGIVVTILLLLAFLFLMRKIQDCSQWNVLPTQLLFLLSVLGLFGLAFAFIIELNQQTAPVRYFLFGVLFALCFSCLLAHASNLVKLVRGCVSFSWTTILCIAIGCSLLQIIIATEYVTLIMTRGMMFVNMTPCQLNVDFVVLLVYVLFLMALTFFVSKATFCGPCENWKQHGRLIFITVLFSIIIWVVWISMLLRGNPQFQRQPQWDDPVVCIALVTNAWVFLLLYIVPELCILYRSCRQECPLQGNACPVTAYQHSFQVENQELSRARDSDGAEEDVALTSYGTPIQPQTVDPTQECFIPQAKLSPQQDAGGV

B1: hybridoma antibody AB1 (IgG2b-k) (antibody, V domains shown)
VH: EVQLQQSGPEVVKPGASMKISCKASGYSFTGYTMNWVKQSHGKNFEWIGLINPYNGGTSYNQKFKGKATLTVDKSSSTAYMELLSLTSEDSAVYYCTRGGFRAWFAFWGQGTLVTVSA
VL: DIQMTQSPSSLSASLGERVSLTCRASQDIGSNLNWLQQEPDGTIKRLIYATSILDSGVPKRFSGSRSGSDYSLTISSLESEDFVDYYCLQYATFPNTFGGGTKLEIKR
notes: Mouse hybridoma mIgG, IgG2b kappa
The term EC50 denotes the concentration at which the effect is half-maximal. In turn, B1 gave an EC50 of 1.69 nM.

B2: hybridoma antibody AB2 (IgG3-k) (antibody, V domains shown)
VH: VVKLVESGGGLVQPGGSLKLSCAASGFTFSNYGMSWVRQTPDTRLELVATINSNGGNTYYPDSVKGRFTISRDNAKNTLYLQMSSLKSEDTAIYYCVRAYSLTMDYWGQGTSVTVSS
VL: DVVMTQTPLSLPVSLGDQASISCRSSQSLVHSNGNTYLHWYLQKPGQSPKLLIYKVSNRFSGVPDRFSGSGSGTDFTLKIIRVEAEDLGVYFCSQSTHVPPTFRAGTKLELKR
notes: Mouse hybridoma mIgG, IgG3 kappa
In turn, B2 registered an EC50 of 1.93 nM.
